Reference: US20210139574A1

Key:
Test in all cases: cell-based or functional assay
[1] = molecular target: Tau seeds: sonicated human insoluble Tau from patients with progressive supranuclear palsy (PSP-PHF, fraction 8) (human) (UniProt P10636)
[2] = molecular target: Tau seeds: sonicated human insoluble Tau from patients with frontotemporal dementia (FTD-PHF) (human) (UniProt P10636)
[3] = molecular target: Tau seeds: sonicated human insoluble Tau from patients with Alzheimer's disease (AD-PHF, fraction 8) (human) (UniProt P10636)
Chain of Tau seeds: sonicated human insoluble Tau from patients with Alzheimer's disease (AD-PHF, fraction 8) (human) (P10636 other isoform, or with tags, fused parts or gaps limits assumed): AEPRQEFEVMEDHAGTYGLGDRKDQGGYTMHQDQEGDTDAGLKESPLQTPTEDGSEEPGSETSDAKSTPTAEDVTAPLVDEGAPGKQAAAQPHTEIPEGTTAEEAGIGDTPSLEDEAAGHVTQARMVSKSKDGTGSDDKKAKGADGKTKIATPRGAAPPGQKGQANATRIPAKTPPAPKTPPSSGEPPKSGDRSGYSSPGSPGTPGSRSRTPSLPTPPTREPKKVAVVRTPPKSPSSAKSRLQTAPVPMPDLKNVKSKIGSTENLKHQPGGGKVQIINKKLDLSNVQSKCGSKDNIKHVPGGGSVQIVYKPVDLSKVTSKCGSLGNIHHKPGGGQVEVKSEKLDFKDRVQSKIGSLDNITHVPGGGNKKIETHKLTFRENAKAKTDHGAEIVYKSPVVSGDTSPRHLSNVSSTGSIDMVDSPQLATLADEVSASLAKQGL

[4] = molecular target: Tau seeds: brain fraction from transgenic mice expressing human Tau P301S (human) (UniProt P10636)
Chain of Tau seeds: brain fraction from transgenic mice expressing human Tau P301S (human) (P10636 other isoform, or with tags, fused parts or gaps P301S P301S): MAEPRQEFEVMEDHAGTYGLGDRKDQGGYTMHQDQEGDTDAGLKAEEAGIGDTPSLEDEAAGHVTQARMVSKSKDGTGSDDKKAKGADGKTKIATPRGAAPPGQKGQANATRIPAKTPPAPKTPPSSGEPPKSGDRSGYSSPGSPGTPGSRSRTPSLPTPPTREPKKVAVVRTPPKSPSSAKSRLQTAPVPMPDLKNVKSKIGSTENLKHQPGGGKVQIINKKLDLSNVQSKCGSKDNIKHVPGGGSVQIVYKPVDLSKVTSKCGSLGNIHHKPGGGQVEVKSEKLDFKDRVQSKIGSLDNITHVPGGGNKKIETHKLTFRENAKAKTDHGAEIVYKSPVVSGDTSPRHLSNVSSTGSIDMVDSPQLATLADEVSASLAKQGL

[5] = molecular target: Tau seeds: brain fraction from transgenic mice expressing human Tau P301L (human) (UniProt P10636)
Chain of Tau seeds: brain fraction from transgenic mice expressing human Tau P301L (human) (P10636 other isoform, or with tags, fused parts or gaps P301L P301L limits assumed): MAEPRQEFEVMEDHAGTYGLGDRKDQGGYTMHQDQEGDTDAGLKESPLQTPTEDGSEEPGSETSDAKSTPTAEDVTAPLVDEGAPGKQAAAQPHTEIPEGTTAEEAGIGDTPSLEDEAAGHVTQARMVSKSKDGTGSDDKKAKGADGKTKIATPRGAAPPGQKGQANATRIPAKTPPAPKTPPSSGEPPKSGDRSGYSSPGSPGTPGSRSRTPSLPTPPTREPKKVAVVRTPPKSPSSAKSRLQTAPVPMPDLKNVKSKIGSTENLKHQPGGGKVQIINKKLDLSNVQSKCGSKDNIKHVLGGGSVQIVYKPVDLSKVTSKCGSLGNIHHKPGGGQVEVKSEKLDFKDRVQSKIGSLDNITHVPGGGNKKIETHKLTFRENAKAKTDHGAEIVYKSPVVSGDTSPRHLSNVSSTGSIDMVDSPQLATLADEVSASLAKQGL

Chain of IPN002 of WO2014/028777A2 (antibody) (VH): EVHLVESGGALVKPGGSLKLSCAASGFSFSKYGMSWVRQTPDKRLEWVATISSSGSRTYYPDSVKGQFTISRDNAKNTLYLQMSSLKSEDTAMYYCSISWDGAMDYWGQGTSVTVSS
Chain of IPN002 of WO2014/028777A2 (antibody) (VL): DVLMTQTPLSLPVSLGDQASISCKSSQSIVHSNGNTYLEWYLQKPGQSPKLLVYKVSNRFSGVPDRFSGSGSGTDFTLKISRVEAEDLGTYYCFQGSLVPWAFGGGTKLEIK
Chain of HJ8.5 of WO 2014/008404 (antibody) (VH): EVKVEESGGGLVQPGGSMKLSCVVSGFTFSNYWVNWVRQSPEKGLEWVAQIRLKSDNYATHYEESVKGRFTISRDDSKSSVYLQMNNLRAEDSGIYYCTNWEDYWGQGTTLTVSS
Chain of HJ8.5 of WO 2014/008404 (antibody) (VL): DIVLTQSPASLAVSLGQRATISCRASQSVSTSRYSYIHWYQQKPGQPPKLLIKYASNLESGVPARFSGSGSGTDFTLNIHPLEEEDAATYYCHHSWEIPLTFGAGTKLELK
Chain of Tau seeds: sonicated human insoluble Tau from patients with progressive supranuclear palsy (PSP-PHF, fraction 8) (human) (P10636 other isoform, or with tags, fused parts or gaps limits assumed): as the sequence (P10636 other isoform, or with tags, fused parts or gaps limits assumed) above
Chain of Tau seeds: sonicated human insoluble Tau from patients with frontotemporal dementia (FTD-PHF) (human) (P10636 other isoform, or with tags, fused parts or gaps limits assumed): as above

Imax (maximal efficacy at 300 nM), cellular Tau aggregation assay [1] [%]	Imax (maximal efficacy at 300 nM), cellular Tau aggregation assay [2] [%]	Imax (maximal efficacy at 300 nM), cellular Tau aggregation assay [3] [%]	IC50, cellular Tau aggregation assay [1] [nM]	Imax (maximal efficacy at 300 nM), cellular Tau aggregation assay [4] [%]	IC50, cellular Tau aggregation assay [5] [nM]	Imax (maximal efficacy at 300 nM), cellular Tau aggregation assay [5] [%]	IC50, cellular Tau aggregation assay [2] [nM]	IC50, cellular Tau aggregation assay [3] [nM]	IC50, cellular Tau aggregation assay [4] [nM]	Substance
25	36	19	–	–	–	–	–	–	–	AT8 (MN1020) (antibody)
79	67	46	73	43	–	–	–	–	–	HJ8.5 of WO 2014/008404 (antibody)
64	50	19	207	22	122	73	–	–	–	IPN002 of WO2014/028777A2 (antibody)
55	80	69	47	56	26	69	1	32	350	PT3 of WO2013/096380A2 (antibody)
